In paper PMC12125310:
Read-outs that look alike come from different tables or passages of the source.

Columns and labels:
Test in all cases: EMSA
DOF6 (Col-0);RGL2 (Col) [1] = target: T1, DOF6 (Col-0);RGL2 (Col) (Arabidopsis thaliana …, UniProt Q9M1E6;Q8GXW1 1-245;1-547, |)
T1 sequence 1: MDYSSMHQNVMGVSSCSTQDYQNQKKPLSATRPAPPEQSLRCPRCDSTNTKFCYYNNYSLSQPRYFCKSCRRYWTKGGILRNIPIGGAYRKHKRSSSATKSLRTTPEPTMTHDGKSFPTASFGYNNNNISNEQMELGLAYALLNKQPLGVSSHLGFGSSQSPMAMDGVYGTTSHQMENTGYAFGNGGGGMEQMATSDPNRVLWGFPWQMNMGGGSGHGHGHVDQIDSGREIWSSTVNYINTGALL
T1 sequence 2: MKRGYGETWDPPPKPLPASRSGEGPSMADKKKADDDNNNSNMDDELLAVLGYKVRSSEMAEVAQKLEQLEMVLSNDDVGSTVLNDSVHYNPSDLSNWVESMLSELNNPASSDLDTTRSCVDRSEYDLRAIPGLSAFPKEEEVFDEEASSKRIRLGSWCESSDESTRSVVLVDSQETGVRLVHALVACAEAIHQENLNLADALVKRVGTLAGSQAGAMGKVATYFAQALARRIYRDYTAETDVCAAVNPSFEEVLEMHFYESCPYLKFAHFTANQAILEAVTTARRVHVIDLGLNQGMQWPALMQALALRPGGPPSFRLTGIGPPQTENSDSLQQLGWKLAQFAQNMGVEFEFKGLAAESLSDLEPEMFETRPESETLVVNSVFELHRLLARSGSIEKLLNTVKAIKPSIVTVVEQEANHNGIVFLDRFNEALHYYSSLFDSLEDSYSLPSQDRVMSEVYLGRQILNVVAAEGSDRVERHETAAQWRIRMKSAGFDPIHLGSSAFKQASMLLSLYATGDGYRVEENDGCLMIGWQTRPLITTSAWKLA

DOF6 (Col-0) = target: T2, DOF6 (Col-0) (Arabidopsis thaliana (Col-0), UniProt Q9M1E6 1-245)
T2 sequence: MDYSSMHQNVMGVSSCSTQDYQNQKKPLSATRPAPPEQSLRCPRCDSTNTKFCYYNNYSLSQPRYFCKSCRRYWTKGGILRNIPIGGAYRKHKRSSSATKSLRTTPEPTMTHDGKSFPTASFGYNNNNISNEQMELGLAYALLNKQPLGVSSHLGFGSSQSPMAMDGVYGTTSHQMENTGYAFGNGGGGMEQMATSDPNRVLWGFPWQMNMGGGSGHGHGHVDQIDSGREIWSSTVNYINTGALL

DOF6 (Col-0);RGL2 (Col) [2] = target: T1, DOF6 (Col-0);RGL2 (Col); remark: listed apart in the source
RGL2 (Col) = target: T3, RGL2 (Col) (Arabidopsis thaliana (Col-0), UniProt Q8GXW1 1-547)
T3 sequence: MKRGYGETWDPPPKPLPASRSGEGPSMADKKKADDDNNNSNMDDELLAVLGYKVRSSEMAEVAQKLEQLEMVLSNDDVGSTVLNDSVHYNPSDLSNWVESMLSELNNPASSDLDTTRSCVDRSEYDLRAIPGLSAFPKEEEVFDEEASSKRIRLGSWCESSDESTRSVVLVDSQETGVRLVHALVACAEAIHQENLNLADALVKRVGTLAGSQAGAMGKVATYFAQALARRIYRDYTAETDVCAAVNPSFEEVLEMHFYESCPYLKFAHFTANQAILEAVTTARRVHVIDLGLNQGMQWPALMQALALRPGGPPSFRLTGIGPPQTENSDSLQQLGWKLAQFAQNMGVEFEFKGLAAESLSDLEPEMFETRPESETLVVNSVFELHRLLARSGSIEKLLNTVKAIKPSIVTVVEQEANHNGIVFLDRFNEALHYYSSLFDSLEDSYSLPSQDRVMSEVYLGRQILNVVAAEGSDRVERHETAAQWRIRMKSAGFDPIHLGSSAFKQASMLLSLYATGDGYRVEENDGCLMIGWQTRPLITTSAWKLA

B1: GA20ox3 Tib probe (dsDNA)
DNA 1: TTTAAAAATAAAATAAAAAGTATCATGATA
DNA 2: TATCATGATACTTTTTATTTTATTTTTAAA
DOF6 (Col-0);RGL2 (Col) [1]
  binding result: binds
DOF6 (Col-0)
  binding result: binds

B2: GA20ox3 Col probe (P8) (dsDNA)
DNA 1: TAAAAAATAAAAATGAAAAGTATCATGATA
DNA 2: TATCATGATACTTTTCATTTTTATTTTTTA
DOF6 (Col-0);RGL2 (Col) [2]
  binding result: binds
RGL2 (Col)
  binding result: no binding
DOF6 (Col-0)
  binding result: binds
